Results reported in patent US20160009800A1 (XOMA US, published 2016).
Positions count from the first letter of the chain named.

B1: Ab065 (antibody, IgG2, V domains shown)
VH: QVQLVQSGAEVKKPGESLKISCKGSGYSFTSYWIGWVRQMPGKGLEWMGIIYPGDSDTRYSPSFQGQVTISADKSISTAYLQWSSLKASDTAMYYCARHELGIDYWGQGTLVTVSS
VL: QAGLTQPPSVSKGLRQTATLTCTGDNNIVGDQGAAWLQQHQGHPPKLLSFRNNSRPSGISERFSASRSRNTASLTITRLQPEDAADYYCSAWDSFLSAWVFGGGTKLTVL
notes: also called XPA.015.214
B2: Ab069 (antibody, IgG2, V domains shown)
VH: EVQLVQSGAEVKKPGESLKISCKGSGYSFTSYWIGWVRQMPGKGLEWMGIIYPGDSDTRYSPSFQGQVTISADKSISIAYLQWSSLKASDTAMYYCARLGRGYYGMDVWGQGTTVTVSS
VL: SSELTQDPAVSVALGQTVRITCQGDSLRSYYASWYQQKPGQAPVLVIYGKNNRPSGIPDRFSGSRSGNTASLTITGAQAEDEADYYCNSRDSSGNHVVFGGGTKVTVL
notes: also called XPA.015.222
B3: Ab050 (antibody, IgG2, V domains shown)
VH: QVQLVQSGAELKKPGATVKISCKVSGYTFGDYHMHWVKQAPGKGLEWMGLVDPENGETEYGEKFQDRITMAADTSTDTAYMELSSLRSEDTAVYYCARSPSSSGYFRVDGFDIWGQGTMVTVSS
VL: NFMLTQPHSVSESPGKTVSISCTGSSGSIGSNYVQWYQQRPGSAPTTVIYEDNQRPSGVPDRFSGSIDSSSNSASLTISGLKTEDEADYYCQSYYNSNVVFGGGTKLTVL
notes: also called XPA.015.193
B4: Ab052 (antibody, IgG2, V domains shown)
VH: EVQLVQSGAEVKKPGESLKISCKGSGYRFTSYWIGWVRQMPGRGLEWMGIIYPGDSDTRYSPSFQGQVTISVDKSISTAYLQWSSLKASDTAMYYCATHHASGRGLDPWGQGTLVTVSS
VL: QAMLTQPASLSASPGASASLTCTLRSGINVVAYNIYWYRQKSGSPPQSVLRYKSDSDSERDSGVPSRFSGSKDVSANAGILLISGLQSEDEADYYCLIWHNSAWVFGGGTQLTVL
notes: also called XPA.015.195
B5: Ab057 (antibody, IgG2, V domains shown)
VH: QMQLVQSGAEVKKPGESLKISCKGYGYRFSDNWIGWVRQMPGRGLEWMGIIYPGDSETRYSPSFQGQVTISADKSISTAYLQWSSLKASDTAMYYCARHAPLAVAGMALGDWGQGTLVTVSS
VL: QTVVTQEPSFSVSPGGTVTLTCGLTSGSVSTSYYPSWYQQTPGQAPRMLVHSTSTRYSGVPDRFSGSILGNKAALTITGAQADDESDYYCALYMGGGIYVFGGGTQLTVL
notes: also called XPA.015.200
B6: Ab038 (antibody, V domains shown)
VH: EVQLLESGGGLVQPGGSLRLSCAASGFTFSNYAMTWVRQAPGKGLEWVSYIHAGGGTHYANSVKGRFTISRDNSKNTLYLQMNSLRAEDTAVYYCARDLHWEGWGLGFDYWGQGTLVTVSS
VL: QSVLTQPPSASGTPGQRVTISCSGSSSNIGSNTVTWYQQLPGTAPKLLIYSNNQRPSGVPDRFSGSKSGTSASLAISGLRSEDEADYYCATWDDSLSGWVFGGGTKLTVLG
notes: also called XPA.015.065
B7: Ab042 (antibody, V domains shown)
VH: B6 VH
VL: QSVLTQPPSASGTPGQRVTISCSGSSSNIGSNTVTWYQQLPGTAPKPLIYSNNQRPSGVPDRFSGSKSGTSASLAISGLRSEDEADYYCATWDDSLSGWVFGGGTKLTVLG
notes: also called XPA.015.086
B8: Ab039 (antibody, V domains shown)
VH: EVQLLESGGGLVQPGGSLRLSCAASGFTFSSYWMSWVRQAPGKGLEWVSGISGSGGYTSYADSVKGRFTISRDNSKNTLYLQMNSLRAEDTAVYYCAKDSSDWYINSWGQGTLVTVSS
VL: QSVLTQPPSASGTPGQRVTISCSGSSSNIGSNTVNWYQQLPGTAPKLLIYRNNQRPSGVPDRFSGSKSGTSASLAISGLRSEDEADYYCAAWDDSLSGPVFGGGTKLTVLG
notes: also called XPA.015.074
B9: Ab040 (antibody, V domains shown)
VH: EVQLLESGGGLVQPGGSLRLSCAASGFTFSSYWMSWVRQAPGKGLEWVAVISKDGSSTDYAHSVKGRFTISRDNSKNTLYLQMNSLRAEDTAVYYCARDRDWIPGDVWGQGTLVTVSS
VL: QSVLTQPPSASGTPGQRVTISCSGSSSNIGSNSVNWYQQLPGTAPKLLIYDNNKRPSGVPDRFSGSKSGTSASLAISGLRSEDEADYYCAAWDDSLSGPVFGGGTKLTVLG
notes: also called XPA.015.077
B10: Ab002 (antibody, V domains shown)
VH: EVKLVESEEGLVKPGGSLKLSCAASGFTFSNYAMSWVRQTPEKRLEWVATISDGGHYTYYSDTIKGRFTISRDNAKNNLFLQLSHLKSEDTAIYYCARGTVFDYWGQGTTLTVSS
VL: DIQMTQTTSSLSASLGDRVTISCRASQDISNYLNWYQQKPDGTVKLLIYYTSRLHSGVPSRFSGSGSGTDYSLTISNLEPEDIATFYCQQYSDLPYTFGGGTKLEIKR
notes: also called XPA.015.190
B11: Ab031 (antibody, V domains shown)
VH: EVQLLESGGGLVQPGGSLRLSCAASGFTFSSNYMSWVRQAPGKGLEWVSSISGGSTYYADSRKGRFTISRDNSKNTLYLQMNSLRAEDTAVYYCARLDWSSGAFDIWGQGTLVTVSS
VL: QSVLTQPPSASGTPGQRVTISCSGRSSNIGYNYVSWYQQLPGTAPKLLIYGNSNRPSGVPDRFSGSKSGTSASLAISGLRSEDEADYYCAAWDDSLSGPVFGGGTKLTVLG
notes: printed on the sheet as Ab031` with a stray mark; also called XPA.015.037
B12: Ab024 (antibody, V domains shown)
VH: EVQLLESGGGLVQPGGSLRLSCAASGFTFSDYYMSWIRRAPGKGLEWVSRISWNSGSIGYADSLKGRFTISRDNSKNTLYLQMNSLRAEDTAVYYCARERGYGYDYWGQGTLVTVSS
VL: B11 VL with R25T, I29L, Y31S, N32H, Y33T, G51D, S53N, N54E, G98A, P99W
notes: also called XPA.015.022
B13: Ab026 (antibody, V domains shown)
VH: EVQLLESGGGLVQPGGSLRLSCAASGFTFSNYVISWVRQAPGKGLEWVSAISGSGGSTFYPDSVKGRFTISRDNSKNTLYLQMNSLRAEDTAMYYCARVGLSGWYYFDYWGQGTLVTVSS
VL: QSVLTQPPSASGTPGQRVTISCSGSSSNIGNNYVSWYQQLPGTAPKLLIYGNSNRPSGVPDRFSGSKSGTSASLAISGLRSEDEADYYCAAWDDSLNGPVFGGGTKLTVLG
notes: also called XPA.015.026
B14: Ab027 (antibody, V domains shown)
VH: EVQLLESGGGLVQPGGSLGLSCAASGFTFNNYWMSWVRQAPGKGLEWVSYISGSGRTIYYADSVKGRFTISRDNSKNTLYLQMNSLRAEDTAVYYCARVGSSGWYYFDYWGQGTLVTVSS
VL: B11 VL with G30E, Y31N, S97N, P99V
notes: also called XPA.015.042
B15: Ab028 (antibody, V domains shown)
VH: EVQLLESGGGLVQPGGSLRLSCAASGFTFRNYWMTWVRQAPGKGLEWVANIKQDGSEKYYVDSVKGRSTISRDNSKNTLYLQMNSLRAEDTAVYYCARQVGGGPFDIWGQGTLVTVSS
VL: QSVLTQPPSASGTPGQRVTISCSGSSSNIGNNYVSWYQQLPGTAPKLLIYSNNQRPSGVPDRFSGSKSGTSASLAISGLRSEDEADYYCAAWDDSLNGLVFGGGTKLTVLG
notes: also called XPA.015.059

target: T1, mouse insulin receptor complexed with human insulin (mouse; human, UniProt P15208 28-1372; P01308 25-54; P01308 90-110); assay: FACS, serum-starved CHO-K1 cells expressing mouse INSR, with insulin
T1 construct: whole, on cells;mature; also called muINSR/hINS complex
Description: (§1) Twenty five microliter aliquots of cells were plated into 96 well plates, mixed with 25 ul of antibody or PPE and incubated on ice for 1 h.
(§2) The cells were then washed once with FACS buffer and the binding of the antibody was detected by the addition of 25 ul of an appropriate fluorochrome-conjugated secondary antibody. […] After a final 15 min incubation on ice the cells were washed and the pellets resuspended in FACS buffer. The cells were analyzed on a FACSCAN™ (Becton-Dickinson, Milipitas, Calif.) and the data analyzed in both FLOWJO™ (Treestar, Ashland, Oreg.) and Microsoft Excel™.

Binder | FACS area under log transformed data MFI
B1 | 177
B2 | 383
B3 | 170
B4 | 397
B5 | 250

target: T2, mouse insulin receptor (mouse, UniProt P15208 28-1372); assay: FACS, serum-starved CHO-K1 cells expressing mouse INSR, no insulin
T2 construct: whole, on cells; also called muINSR; mINSR

Binder | FACS area under log transformed data MFI
B1 | 483
B2 | 642
B3 | 424
B4 | 892
B5 | 409

target: T3, human insulin receptor (human, UniProt P06213 28-1382); assay: FACS, serum-starved CHO-K1 cells expressing human INSR, no insulin
T3 construct: whole, on cells; Uncomplexed receptor on serum-starved cells (CHOK1 transfectants or IM-9); also called hINSR; INSR
Description: as §1, §2

Binder | FACS area under log transformed data MFI
B1 | 205
B2 | 357
B3 | 252
B4 | 445

target: T2, mouse insulin receptor; assay: FACS on mouse INSR; conditions not given on the sheet

Binder | binding result
B6 | binds
B7 | no binding
B8 | binds
B9 | binds
B10 | no binding
B11 | no binding
B12 | no binding
B13 | no binding
B14 | no binding
B15 | no binding

target: T1, mouse insulin receptor complexed with …; assay: FACS, CHO-K1 mouse INSR cells, signal with insulin divided by signal without insulin
Description: as §1, §2

Binder | FACS area under log transformed data MFI ratio (+insulin/-insulin)
B1 | 0.37
B2 | 0.6
B3 | 0.4
B4 | 0.45
B5 | 0.61
